{"source": "IntAct's records for PubMed 24325460", "parents": {"B1": {"name": "Isocitrate dehydrogenase [NADP] (Bacillus subtilis), P39126 (parent)", "chain": "MAQGEKITVSNGVLNVPNNPIIPFIEGDGTGPDIWNAASKVLEAAVEKAYKGEKKITWKEVYAGEKAYNKTGEWLPAETLDVIREYFIAIKGPLTTPVGGGIRSLNVALRQELDLFVCLRPVRYFTGVPSPVKRPEDTDMVIFRENTEDIYAGIEYAKGSEEVQKLISFLQNELNVNKIRFPETSGIGIKPVSEEGTSRLVRAAIDYAIEHGRKSVTLVHKGNIMKFTEGAFKNWGYELAEKEYGDKVFTWAQYDRIAEEQGKDAANKAQSEAEAAGKIIIKDSIADIFLQQILTRPNEFDVVATMNLNGDYISDALAAQVGGIGIAPGANINYETGHAIFEATHGTAPKYAGLDKVNPSSVILSGVLLLEHLGWNEAADLVIKSMEKTIASKVVTYDFARLMDGATEVKCSEFGEELIKNMD", "partner": "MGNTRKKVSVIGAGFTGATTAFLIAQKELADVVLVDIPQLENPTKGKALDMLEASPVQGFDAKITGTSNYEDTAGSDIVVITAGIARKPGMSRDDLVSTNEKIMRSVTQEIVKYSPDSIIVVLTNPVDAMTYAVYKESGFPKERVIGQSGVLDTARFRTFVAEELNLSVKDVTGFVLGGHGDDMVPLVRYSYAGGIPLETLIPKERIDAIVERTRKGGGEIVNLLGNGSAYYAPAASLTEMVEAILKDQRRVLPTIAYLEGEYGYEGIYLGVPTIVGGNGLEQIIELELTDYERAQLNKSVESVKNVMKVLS"}}}
{"variants_of": "B1", "settings": "with mdh_bacsu mdh"}
{"variant": "MAQGEKITVSNGVLNVPNNPIIPFIEGDGTGPDIWNAASKVLEAAVEKAYKGEKKITWKEVYAGEKAYNKTGEWLPAETLDVIREYFIAIKGPLTTPVGGGIRPLNVALRQELDLFVCLRPVRYFTGVPSPVKRPEDTDMVIFRENTEDIYAGIEYAKGSEEVQKLISFLQNELNVNKIRFPETSGIGIKPVSEEGTSRLVRAAIDYAIEHGRKSVTLVHKGNIMKFTEGAFKNWGYELAEKEYGDKVFTWAQYDRIAEEQGKDAANKAQSEAEAAGKIIIKDSIADIFLQQILTRPNEFDVVATMNLNGDYISDALAAQVGGIGIAPGANINYETGHAIFEATHGTAPKYAGLDKVNPSSVILSGVLLLEHLGWNEAADLVIKSMEKTIASKVVTYDFARLMDGATEVKCSEFGEELIKNMD", "note": "[S104P]", "effect of a mutation on the interaction": "increasing interaction"}
